Data published in patent publication US20160115467A1 (Biogen, published 2016).

Assays:
[1] = target: T1, human GPIIb/IIIa on human platelets (human, UniProt P08514 32-1039; P05106 27-788); assay: flow cytometry, hybridoma supernatant on human platelets
T1 construct: Native receptor on gel-purified human platelets or platelets in diluted human whole blood; also called platelets in human whole blood
Description: Hybridomas were then screened for binding to human and cynomolgus monkey platelets using flow cytometry, and for binding to GPIIb/IIIa using Enzyme-linked immunosorbent assays (ELISA). To determine binding to human and money platelets, gel-purified human or monkey (cynomolgus) platelets in Tyrode's buffer were incubated with hybridoma supernatant. Following a 30 minute incubation, cells were fixed in 1% formaldehyde. Following fixation, cells were washed in Tyrode's buffer and a detection antibody was added (Jackson Immunoresearch goat anti-mouse IgG-PE conjugated). Antibody binding was detected by flow cytometry.

[2] = target: T1, human GPIIb/IIIa on human platelets; assay: flow cytometry, protein spiked in diluted (1:50) human whole blood, FITC-anti-FVII on CD42b-stained platelets
[3] = target: T2, mouse platelets (mouse GPIIb/IIIa) (mouse, UniProt Q9QUM0 32-1033; O54890 26-787); assay: binding to platelets in mouse blood (method not detailed; flow cytometry implied)
T2 construct: whole, on cells; the receptor is inferred from the antibody's target
T2 sequence (Q9QUM0 32-1033, chain 1 of 2): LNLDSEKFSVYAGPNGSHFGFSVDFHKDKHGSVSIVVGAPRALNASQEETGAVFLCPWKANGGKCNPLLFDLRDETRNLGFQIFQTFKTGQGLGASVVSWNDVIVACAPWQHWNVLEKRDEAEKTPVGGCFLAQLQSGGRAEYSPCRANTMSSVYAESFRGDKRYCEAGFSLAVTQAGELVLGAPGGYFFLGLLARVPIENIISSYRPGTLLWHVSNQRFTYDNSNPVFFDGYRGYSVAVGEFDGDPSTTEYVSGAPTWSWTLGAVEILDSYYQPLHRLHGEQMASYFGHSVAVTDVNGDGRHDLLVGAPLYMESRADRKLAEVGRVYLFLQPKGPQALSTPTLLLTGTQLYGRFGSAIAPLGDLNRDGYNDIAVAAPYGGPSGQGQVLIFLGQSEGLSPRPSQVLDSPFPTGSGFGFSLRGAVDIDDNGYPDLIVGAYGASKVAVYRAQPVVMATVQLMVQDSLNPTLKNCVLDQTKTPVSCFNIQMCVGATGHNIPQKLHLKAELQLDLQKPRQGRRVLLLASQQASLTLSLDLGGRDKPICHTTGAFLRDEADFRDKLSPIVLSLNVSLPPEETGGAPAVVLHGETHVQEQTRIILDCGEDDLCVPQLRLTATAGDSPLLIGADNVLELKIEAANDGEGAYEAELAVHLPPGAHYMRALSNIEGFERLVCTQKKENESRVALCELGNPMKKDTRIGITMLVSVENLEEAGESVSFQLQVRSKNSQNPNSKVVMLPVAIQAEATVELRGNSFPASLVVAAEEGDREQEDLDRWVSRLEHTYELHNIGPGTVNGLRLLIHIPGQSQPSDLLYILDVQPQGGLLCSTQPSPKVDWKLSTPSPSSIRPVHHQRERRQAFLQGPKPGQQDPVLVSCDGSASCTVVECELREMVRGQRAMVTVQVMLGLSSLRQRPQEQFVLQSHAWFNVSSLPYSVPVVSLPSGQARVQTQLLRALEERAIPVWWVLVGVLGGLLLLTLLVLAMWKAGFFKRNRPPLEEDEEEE
T2 sequence (O54890 26-787, chain 2 of 2): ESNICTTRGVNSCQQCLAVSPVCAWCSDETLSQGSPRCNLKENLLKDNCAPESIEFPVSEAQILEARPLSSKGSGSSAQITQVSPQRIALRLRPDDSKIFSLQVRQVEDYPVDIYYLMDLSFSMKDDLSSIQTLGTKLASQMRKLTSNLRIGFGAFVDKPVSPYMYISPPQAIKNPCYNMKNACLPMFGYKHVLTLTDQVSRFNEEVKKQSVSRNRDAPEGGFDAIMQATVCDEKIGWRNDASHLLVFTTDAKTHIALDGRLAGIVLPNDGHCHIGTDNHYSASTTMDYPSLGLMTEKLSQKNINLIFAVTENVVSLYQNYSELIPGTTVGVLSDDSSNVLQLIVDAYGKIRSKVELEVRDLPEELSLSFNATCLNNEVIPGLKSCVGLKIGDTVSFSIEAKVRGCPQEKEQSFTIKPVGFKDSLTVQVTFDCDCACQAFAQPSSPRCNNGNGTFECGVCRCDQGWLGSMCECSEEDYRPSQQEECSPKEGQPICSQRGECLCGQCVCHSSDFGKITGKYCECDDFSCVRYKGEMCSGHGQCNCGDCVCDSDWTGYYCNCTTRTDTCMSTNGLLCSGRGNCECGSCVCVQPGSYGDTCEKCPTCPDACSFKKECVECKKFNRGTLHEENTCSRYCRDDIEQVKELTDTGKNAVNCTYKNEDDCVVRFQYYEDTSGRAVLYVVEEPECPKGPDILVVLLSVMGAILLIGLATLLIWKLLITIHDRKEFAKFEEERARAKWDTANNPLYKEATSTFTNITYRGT

| Binder | binding result [1] | binding result [2] | binding result [3] |
| --- | --- | --- | --- |
| 18F7 (antibody, V domains shown, Mouse monoclonal from BALB/c hybridoma, tested as hybridoma supernatant; also called 18F7 antibody) VH: QVQLKESGPGLVAPSQSLSITCTVSGFSLTSYGVSWVRQPPGKGLEWLGIIWGDGSTNYHSVLKSRLSISKDNSKSQVFLKLNSLQTDDTATYYCAKQDFDVWGAGTTVTVSS VL: DVQMIQSPFSLSASLGDIVTMTCQASQGTSINLNWFQQKPGKAPKLLIYGVSNLEDGVPSRFSGSRYGTDFTLTIGSLEDEDMATYFCLQHSYLPYTFGGGTKLEIKR | binds |  |  |
| 28F4 (antibody, V domains shown, Mouse monoclonal from BALB/c hybridoma, tested as hybridoma supernatant; also called 28F4 antibody) VH: EVQLVESGGDLVKPGGSLKLSCAASGFTFSNYGMSWVRQTPDKRLEWVATISSGGTYTYYPDSVKGQFTIFRDNAKNTLYLQMSSLKSEDTAMYYCTRRDYDYEGFAYWGQGTLVTVS VL: DIVLTQSPATLSVTPGDSVSLSCRASQSISNNLHWYQQKSHESPRLLIKYASHSISGIPSRFSGSGSGTDFTLSINSVETEDFGMYFCQQSNNWPFTFGSGTKLEIKR | binds |  |  |
| 1H6 (antibody, V domains shown, Mouse monoclonal from BALB/c hybridoma, tested as hybridoma supernatant; also called 1H6 antibody) VH: QVQLQQSGAELVRPGTSVKVSCKASGYAFTNYLIEWVKQRPGQGLEWIGVINPGSGGTNYNEKFKGKATLTADKSSSTAYMHLSSLTSDDSAVYFCARGRYEWYFDVWGAGTTVTVSS VL: DIQMTQTTSSLSASLGDRVTISCRASQDITNYLNWYQRKPDGTVKLLIYYTSRLHSGVPSRFSGSGSGTDYSLTISNLEQEDIATYFCQQGYTLPYTFGGGTKLEIKR | binds |  |  |
| 34D10 (antibody, V domains shown, Mouse monoclonal from BALB/c hybridoma, tested as hybridoma supernatant (detected with anti-mouse IgG); also called monoclonal antibody 34D10; 34D10 antibody) VH: EVKLVESGGGLVKPGGSLKLSCAASGFTFSAYAMSWVRQTPEKRLEWVASISSGGTTYYPDSVKRRFTISRDNARNILYLQMSSLRSEDTAMYYCTRGGDYGYALDYWGQGTSVTVSS VL: ENVLTQSPAIMSASLGEKVTMSCRASSSVNYMYWYQQKSDASPKLWIYYTSNLAPGVPARFSGSGSGNSYSLTISSMEGEDAATYYCQQFSSSPWTFGGGTKLEIKR | binds |  | no binding |

Further lines, results first:

| binding result [1] | binding result [2] | binding result [3] | Binder |
| --- | --- | --- | --- |
|  | no binding |  | rFVIIa (enzyme, Control without targeting moiety) chain 1: ANAFLEELRPGSLERECKEEQCSFEEAREIFKDAERTKLFWISYSDGDQCASSPCQNGGSCKDQLQSYICFCLPAFEGRNCETHKDDQLICVNENGGCEQYCSDHTGTKRSCRCHEGYSLLADGVSCTPTVEYPCGKIPILEKRNASKPQGR chain 2: IVGGKVCPKGECPWQVLLLVNGAQLCGGTLINTIWVVSAAHCFDKIKNWRNLIAVLGEHDLSEHDGDEQSRRVAQVIIPSTYVPGTTNHDIALLRLHQPVVLTDHVVPLCLPERTFSERTLAFVRFSLVSGWGQLLDRGATALELMVLNVPRLMTQDCLQQSRKVGDSPNITEYMFCAGYSDGSKDSCKGDSGGPHATHYRGTWYLTGIVSWGQGCATVGHFGVYTRVSQYIEWLQKLMRSEPRPGVLLRAPFP |
| binds |  |  | 12B2 (antibody, V domains shown, Mouse monoclonal from BALB/c hybridoma, tested as hybridoma supernatant; also called 12B2 antibody) VH: QVQLQQSGAELTKPGASVKISCKATGYTFSSYWIEWVKQRPGHGLEWIGEILPGSGITKYNDKFKGKATFTADTSSNTAYMQLSSLTSEDSAVYSCARLISYYYAMDYWGQGTSVTVSS VL: DIQMTQTTSSLSASLGDRVTISCRASQDISNYLNWYQQKPDGTVKLLIYYTSRLHSGVPSRFSGSGSGTDYSLTISNLEQEDIATYFCQQGNTLPPTFGGGTKLEIKR |
| binds |  |  | 38A8 (antibody, V domains shown, Mouse monoclonal from BALB/c hybridoma, tested as hybridoma supernatant; also called 38A8 antibody) VH: QVQLQQSGAELVRPGTSVKVSCKASGYAFTNYLIEWIKQRPGQGLEWIGVINPGSGGTNYNEKFKGKATLTADKSSSTAYMQLSSLTSDDSAVYFCARGRYEWYFDVWGAGTTVTVSS VL: DIQMTQTTSSLSASLGDRVTISCRASQDISNYLNWYLQKPDGTVKLLIYYTSRLHSGVPSRFSGSGSGTDYSLSISNLEQEDIATYFCQQGYTLPYTFGGGTKLEIKR |
| binds |  |  | 28C2 (antibody, V domains shown, Mouse monoclonal from BALB/c hybridoma, tested as hybridoma supernatant; also called 28C2 antibody) VH: QVTLKASGPGIVQPSQTLSLTCSFSGFSLNTSGMGVGWIRQPSGKGLEWLAHIWWDDDKRYNPALKSRLTISKDTSNNQIFLKIASVDTADTATYYCARSHYYGTFYFDYWGQGTTLTVSS VL: DVQITQSPSYLAASPGETITINCRASKSISKYLAWYQEKPGTTYKLLIYSGSTLQSGIPSRFSGSGSGTDFTLTISSLEPEDFAMYYCQQHIEYPWTFGGGTKLEIKR |
| binds |  |  | 9D6 (antibody, V domains shown, Mouse monoclonal from BALB/c hybridoma, tested as hybridoma supernatant; also called 9D6 antibody) VH: QVTLKESGPGILQPSQTLSLTCSFSGFSLSTSGMGVGWIRQSSGKGLEWLAHIWWDDDKRYNPTLKSRLTISKDTSNNQVFLKIANMDTADIATYYCARSHYNGTFYFDFWGQGITLTVSS VL: DVQITQSPSYLAASPGETITINCRASKSISKYLAWYQEKPGKTNKLLIYSGSTLQSGIPSRFSGSGSGTDFTLTISTLEPEDFAMYYCQQHIEYPWTFGGGTKLEIKR |
| binds |  |  | 4B11 (antibody, V domains shown, Mouse monoclonal from BALB/c hybridoma, tested as hybridoma supernatant; also called 4B11 antibody) VH: EVKLVESGGGLVKPGGSLKLSCAASGFTFSSYAMSWVRQTPEKRLAWVASISSGGNIYFPDSVKGRFTISRDDARNILYLQMRSLRSEDTAMYYCARGGDYGYAMDYWGQGTSVTVSS VL: ENVLTQSPAIMSASLGEKVTMNCRASSSVNYMYWYQQKSDASPKLWIFYTSNLAPGVPARFSGSGSGNSYSLTISSMEGEDAATYYCQQFSSSPWTFGGGSKLEIKR |
| binds |  |  | 36A8 (antibody, V domains shown, Mouse monoclonal from BALB/c hybridoma, tested as hybridoma supernatant; also called 36A8 antibody) VH: EVRLVESGGGLVKPGGSLKLSCAASGFTFSTYAMSWVRQTPEKRLEWVASINGGGSTYYPDSVKGRFTISRDNARNILYLQMRSLRSEDTAMYYCARGGDYGYALDYWGQGTSVTVSS VL: ENVLTQSPAIMSASLGEKVTMNCRASSSVNYMYWYQQKSDASPKLWIFYTSNLAPGVPARFSGSGSGNSYSLTISSMEGEDAATYYCQQFSSSPWTFGGGSKLEIKR |
